In patent publication US20230218739A1:
“And” between values parts separate entries of the source, which are not always exact repeats. Identical values can stand only once. Like-named read-outs stand apart in the source and are kept apart here.

Tests used:
[1] = biological target: Rabies G-Trimer (CTN-1 Strain) (ectodomain of rabies CTN-1 strain G protein fused in frame to Trimer-Tag) (Rabies virus CTN-1 strain)
[2] = biological target: Rabies G-Trimer (CTN-1 Strain) (ectodomain of rabies CTN-1 strain G protein fused in frame to Trimer-Tag) (Rabies virus CTN-1 strain); remark: listed apart in the source
[3] = biological target: Rabies G-Trimer (CTN-1 Strain) (ectodomain of rabies CTN-1 strain G protein fused in frame to Trimer-Tag) (Rabies virus CTN-1 strain); remark: listed apart in the source
[4] = biological target: Influenza HA-Trimer (exemplary fusion protein comprising HA (Influenza A virus A/California/07/2009-pdm (H1N1))); assay: biolayer interferometry (Octet), […]
[5] = biological target: recombinant HA produced from insect cells; assay: ForteBio Octet molecular interaction analysis

Substance | CTN-1 Specific IgG titer (End point) [1] | p75 Competitive titer IC50 GMT [2] | p75 Competitive titer IC50 GMT [3] | Kd [4] [nM] | Kd [5] [nM]
HDCV | 57 and 33 | 87 | 30 and 25 | – | –
CR6261 (broadly neutralizing anti-HA antibody, ACRO Biosystems) | – | – | – | < 0.001 | 3.8
